# ± gives the uncertainty stated by the source.
# Assay: amyloid nucleation score (Sup35N fusion, yeast selection) (log enrichment); library NNK1; higher = more nucleation; inactive = no reads after selection
# Procedure, shortened: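 Growth for 7 days at 30°C on medium lacking adenine and uracil followed a 24-hour induction with 100 μM copper sulfate of psi-negative yeast expressing peptides of 20 random codons fused to Sup35N. Input and output plasmid inserts were sequenced with Illumina, and sequences with under 100 input reads were excluded. Nucleation score is the DiMSum log enrichment of output over input reads, centred on the mode score of non-aggregating sequences.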
row,Substance,amyloid nucleation score
1,SSCYLCLVVYSFTS,5.3 ± 0.072
2,SSDFY,-1.46 ± 1.3
3,SSDSLYTYDMDWAWAGTP,0.281 ± 0.38
4,SSGRRWWTFQHHQIYLKVRS,1.09 ± 0.59
5,SSGYYFVQWTCYLRK,-1.27 ± 2.7
6,SSIALYFGWLGSIR,0.294 ± 0.85
7,SSIIILSNMLTYK,3.61 ± 0.1
8,SSKCDLIDCSSD,inactive
9,SSKSAWYVRWSVSVQNKGRG,-0.363 ± 0.44
10,SSLKDSNLWSEIGTLWLTVM,-0.091 ± 0.25
11,SSLKVLIPYSCYHFV,2.76 ± 0.1
12,SSLPRYNPR,inactive
13,SSLVATPLGLELIKGRSSSL,0.57 ± 1.2
14,SSLVKTS,-0.44 ± 0.47
15,SSLVVAWF,0.219 ± 0.21
16,SSMILSNGVFNCQMGFLACK,0.461 ± 0.43
17,SSMWFYLRM,-0.595 ± 1.9
18,SSNWFPR,-0.07 ± 0.59
19,SSNYADNEGSAHQFGNRRES,-0.108 ± 0.43
20,SSPDFMFYILNRALA,-0.526 ± 1.4
21,SSPTLLSWVKW,0.99 ± 0.58
22,SSRDGTIRRGWIWVDVRVKS,0.142 ± 0.48

row,Substance,amyloid nucleation score
1,SSSGFNIFRLLV,-0.325 ± 0.25
2,SSSSVVLTRLQPTTGSYEMT,-0.667 ± 1.6
3,SSWQGLRNLHGSYEDQINVK,4.17 ± 0.073
4,SSYMLWFAIFVRNLNPLVFW,-0.871 ± 0.37
5,STFNFTRIASADMSGTSTIW,0.505 ± 0.33
6,STFSSVTGYKPCY,0.551 ± 1.2
7,STLSVLLSWQN,0.01 ± 0.41
8,STTLQERVYSAPATDLRDWA,0.246 ± 0.37
9,STVFNGSGGEDVKKCPPHA,inactive
10,STVIHN,1.23 ± 0.84
11,STVTTAYNDMSLIWQAARVL,0.436 ± 0.57
12,SVAFWSVCRVLGTDADMDRI,-0.254 ± 0.58
13,SVCGSLSC,1.16 ± 0.76
14,SVKYMVIDFQLKRMEVVINK,0.354 ± 0.36
15,SVPAHFNRYMCNRGYCRFRR,inactive
16,SVRANIA,1.34 ± 0.38
17,SVRGSYCYASLVCSDFL,-1.12 ± 0.84
18,SVSFEDDISMASGCCFLRGC,-0.146 ± 0.25
19,SVSNTYERE,0.879 ± 0.68
20,SVTDRKV,0.468 ± 0.41
21,SVTWFIYAWWFLGGSL,-0.921 ± 2.4
22,SVTWSYVTHLLLWLFGGAGL,0.848 ± 0.76

row,Substance,amyloid nucleation score
1,SVVRNESNSLVH,0.065 ± 0.28
2,SVYKVPVVYGINTRFYFSES,1.18 ± 0.33
3,SVYVGRGHFLQKFRRLLRFE,inactive
4,SWASLIC,-0.838 ± 0.89
5,SWCVTCVLA,7.204 ± 0.053
6,SWFIL,0.428 ± 0.85
7,SWFNISAVLENMGRYS,0.26 ± 0.44
8,SWFWHPYFCHRRIGSMGDGV,-0.017 ± 0.58
9,SWGLGSFLY,0.06 ± 0.36
10,SWLVPR,-0.104 ± 0.25
11,SWNFTLLD,inactive
12,SWNKGLREED,0.562 ± 0.72
13,SWNLGADIAMDDHVESV,0.601 ± 0.39
14,SWRGICV,inactive
15,SWSRRDVYKEGLDGGMGEGA,-1.07 ± 1.3
16,SWSSKRNVWEHIVGESYEYF,inactive
17,SWTKVHLLVQAL,-1.14 ± 0.86
18,SWTVGSMLSLDIWHRVYLTT,-0.058 ± 0.44
19,SYDRNDFLGERSVGMH,0.736 ± 0.36
20,SYFFGACCVGMCRLWNLFYS,0.857 ± 0.52
21,SYGRLVGTWL,-0.111 ± 0.54
22,SYKLAVIRKM,-0.28 ± 0.24

row,Substance,amyloid nucleation score
1,SYLTGAEFFSTVRK,-0.745 ± 1.7
2,SYNRIILTFWSFLL,1.13 ± 0.35
3,SYPFWYSHMIHCYRFAIFGL,-2.73 ± 2.4
4,SYQLSSVMDLAWMTHSTFGS,1.8 ± 0.2
5,SYQSDDLWQETKPALSPLLE,0.119 ± 0.46
6,SYRGVRIGSGGLMYRGANSF,inactive
7,SYSYDARNCNNTRDGNYNFL,-1.99 ± 1.1
8,SYYRLGACSRCHYFFMIEAR,inactive
9,TAESQAKQLSSNRKVGLTPS,0.549 ± 0.27
10,TAMKILPAQRGCIYVWHNRR,inactive
11,TASCVIMELPVGTNDKYVWT,0.296 ± 0.5
12,TASIDEQHHWTRQY,0.32 ± 0.36
13,TATGGASETERTAVTMY,-0.609 ± 1.9
14,TAWHLSMNALGNSSLDFKGR,1.51 ± 0.16
15,TCHLLPSICKSLWNHDNHGL,inactive
16,TCRDYCASVSEEQIWLMVYR,0.297 ± 0.67
17,TCRFTHLLFWYFK,0.246 ± 0.97
18,TCVGDCGCIGWSTIFFSDYS,1.43 ± 0.72
19,TDADYTPHVQSVPYYAHLII,3.88 ± 0.14
20,TDAQWGIFYDENIYPLDVFC,0.075 ± 0.33
21,TDCSSLC,-0.373 ± 0.31
22,TDKSCRRNGTHAMVHFTPEL,-1.99 ± 1.7

# From the supplement of paper PMC12042874
